Data on five molecules can be found in patent publication US20190016764A1 (KYUNGPOOK NATIONAL UNIVERSITY INDUSTRY ACADEMIC COOPERATION …, published 2019).

No end group written: not given here.

The chains are these.
T1: TFMG (TRAP-ferritin monomer fragment-linker-PC-Gla fusion polypeptide)
T1 chain: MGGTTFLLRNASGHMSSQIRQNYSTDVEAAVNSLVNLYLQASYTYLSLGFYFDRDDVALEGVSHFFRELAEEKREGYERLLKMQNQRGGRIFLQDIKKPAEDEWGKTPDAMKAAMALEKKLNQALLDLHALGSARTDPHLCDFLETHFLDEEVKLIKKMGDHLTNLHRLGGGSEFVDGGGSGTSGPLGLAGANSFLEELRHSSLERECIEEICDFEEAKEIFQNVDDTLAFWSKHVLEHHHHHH

T2: EPCR in mouse vena cava (mouse, UniProt Q64695 18-242)
T2 construct: whole, on cells; Endogenous receptor in tissue sections of C57BL/6 mice; also called EPCR (mouse, in vivo)
T2 sequence (looked up): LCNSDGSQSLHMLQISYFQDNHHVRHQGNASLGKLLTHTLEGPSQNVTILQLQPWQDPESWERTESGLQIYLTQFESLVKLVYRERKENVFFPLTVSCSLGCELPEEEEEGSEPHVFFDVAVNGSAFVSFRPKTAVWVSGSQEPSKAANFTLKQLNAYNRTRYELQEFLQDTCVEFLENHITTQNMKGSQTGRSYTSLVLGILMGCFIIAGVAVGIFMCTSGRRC

B1: TFG (TRAP-ferritin monomer fragment-PC-Gla fusion polypeptide) (other)
chain: MGGTTFLLRNASGHMSSQIRQNYSTDVEAAVNSLVNLYLQASYTYLSLGFYFDRDDVALEGVSHFFRELAEEKREGYERLLKMQNQRGGRIFLQDIKKPAEDEWGKTPDAMKAAMALEKKLNQALLDLHALGSARTDPHLCDFLETHFLDEEVKLIKKMGDHLTNLHRLGGGSEFVDGGGSGTSANSFLEELRHSSLERECIEEICDFEEAKEIFQNVDDTLAFWSKHVLEHHHHHH
notes: also called TRAP-ferritin-PC-Gla; TFG nanocage
B2: MMP-2 (matrix metalloproteinase-2), p-aminophenylmercuric acetate-activated (protein)
chain: YNFFPRKPKWDKNQITYRIIGYTPDLDPETVDDAFARAFQVWSDVTPLRFSRIHDGEADIMINFGRWEHGDGYPFDGKDGLLAHAFAPGTGVGGDSHFDDDELWTLGEGQVVRVKYGNADGEYCKFPFLFNGKEYNSCTDTGRSDGFLWCSTTYNFEKDGKYGFCPHEALFTMGGNAEGQPCKFPFRFQGTSYDSCTTEGRTDGYRWCGTTEDYDRDKKYGFCPETAMSTVGGNSEGAPCVFPFTFLGNKYESCTSAGRSDGKMWCATTANYDDDRKWGFCPDQGYSLFLVAAHEFGHAMGLEHSQDPGALMAPIYTYTKNFRLSQDDIKGIQELYGASPDIDLGTGPTPTLGPVTPEICKQDIVFDGIAQIRGEIFFFKDRFIWRTVTPRDKPMGPLLVATFWPELPEKIDAVYEAPQEEKAVFFAGNEYWIYSASTLERGYPKPLTSLGLPPDVQRVDAAFNWSKNKKTYIFAGDKFWRYNEVKKKMDPGFPKLIADAWNAIPDNLDAVVDLQGGGHSYFFKGAYYLKLENQSLKSVKFGSIKSDWLGC
B3: PC-Gla peptide (Protein C Gla domain polypeptide) (peptide)
peptide: ANSFLEELRHSSLERECIEEICDFEEAKEIFQNVDDTLAFWSKHV
modifications: ends and bridges not checked; also: labelled with a fluorescent dye for cell and in vivo assays
notes: No gamma-carboxylation of Glu residues is stated; It was labelled with a fluorescent dye for the cell and in vivo assays; also called PC-Gla domain; PC-Gla peptides
B4: soluble EPCR (endothelial protein C receptor) (receptor, UniProt Q9UNN8 18-210, looked up)
chain: SQDASDGLQRLHMLQISYFRDPYHVWYQGNASLGGHLTHVLEGPDTNTTIIQLQPLQEPESWARTQSGLQSYLLQFHGLVRLVHQERTLAFPLTIRCFLGCELPPEGSRAHVFFEVAVNGSSFVSFRPERALWQADTQVTSGVVTFTLQQLNAYNRTRYELREFLEDTCVQYVQKHISAENTKGSQTSRSYTS
notes: also called sEPCR
B5: TFMG (TRAP-ferritin monomer fragment-linker-PC-Gla fusion polypeptide) (other)
chain: T1 chain
notes: also called TMFG; TFME

Data set [1] concerns the target B4. Put plainly: solid-phase ELISA, sEPCR coated on the plate, detection with anti-protein C polyclonal antibody; Kd(app). The method, then: (§1) To evaluate the interaction of the wild-type PC, PC-Gla peptides, TFG, and TFMG with EPCR, 96-well flat microtiter plates were coated with soluble EPCR in 20 mM carbonate-bicarbonate buffer (pH 9.6) containing 0.02% sodium azaide, overnight at 4° C. After the plates were washed three times in TBS buffer (0.1 M NaCl, 0.02 M Tris-HCl, pH 7.4) containing 0.05% Tween 20, the plates were incubated with wild-type PC, PC-Gla peptides, TFG, and TFMG ([…]) diluted in the buffer for 1 h. After the plates were rinsed again, they were incubated with a goat anti-protein C polyclonal antibody (1:1000) for 1 h. Then, the plates were washed and incubated with rabbit anti-goat IgG (KPL, MD, 1:1000) for 1 h. After washing, the plates were incubated with 2,2′-azino-di(3-ethylbenzthiazoline-6-sulfonate) (ABTS; KPL, Gaithersburg, Md.). Colorimetric analysis was performed by measuring absorbance values at 405 nm.
(§2) First, a solid-phase ELISA was used to measure the binding affinity of TFG or TFMG toward the PC-Gla receptor, EPCR. In this assay, the efficiency of their binding to soluble EPCR (sEPCR) was compared. […] TFG and TFMG, respectively.
(In general: In an ELISA, binding on a coated surface is turned into a signal by an enzyme label.)

Data set [2] concerns the target T1, TFMG (TRAP-ferritin monomer …).
For a further data set, the target named is T2, EPCR in mouse vena cava. The data set is described as follows: immunohistochemistry of mouse vena cava after i.v. injection of the fluorescence-labelled molecule; comparison with TFG and TFMG. How it is done:
Twenty-four hours prior to CLP surgery, fluorescence labeled-PC-Gla, TFG, and TFMG (200 nM/mouse) was intravenously injected into the mice, respectively. After 24 h, mouse vena cava was enucleated and fixed in visikol for 24 h. Subsequently, vena cava was embedded in optimum cutting temperature (OCT) compound (Tissue Tek) at −80° C. Consecutive sections were incubated with anti-EPCR antibody (Santa Cruz, Calif.), anti-rabbit Alexa 488 (green), anti-CD31 antibody, and anti-rabbit Alexa 350 (blue), and observed by confocal microscopy at 63× magnification (TCS-SP5, Leica microsystem, Germany).

A further data set concerns the target T3, wild type Protein C (PC) (UniProt P04070 43-461).
T3 construct: also called wild-type PC
The data set is described as follows: solid-phase ELISA, sEPCR coated on the plate, detection with anti-protein C polyclonal antibody; Kd(app). How it is done:
as §1, §2

Turning to B1, the Kd in data set [1] was found to be 0.0315 µM.

Regarding B2, the “cleavage of the linker and release of PC-Gla (HPLC, MALDI-ToF)” value in data set [2] is given as “TFMG was cleaved by MMP-2 to release PC-Gla in agreement with the calculated mass (5,518.6 Da by MALDI-ToF)”.

Turning to B3, the binding result in the data set with EPCR in mouse vena cava is reported as “binds”.

Consider B4, for which, in the data set with wild type Protein C (PC), the Kd is ~0.0313 µM.

B5 returned a Kd in data set [1] of 0.0307 µM.
